Test results published in IntAct's records for PubMed 21516123.

B1: Peroxiredoxin-1 (Mus musculus), P35700 (parent)
chain: MSSGNAKIGYPAPNFKATAVMPDGQFKDISLSEYKGKYVVFFFYPLDFTFVCPTEIIAFSDRADEFKKLNCQVIGASVDSHFCHLAWINTPKKQGGLGPMNIPLISDPKRTIAQDYGVLKADEGISFRGLFIIDDKGILRQITINDLPVGRSVDEIIRLVQAFQFTDKHGEVCPAGWKPGSDTIKPDVNKSKEYFSKQK
partner: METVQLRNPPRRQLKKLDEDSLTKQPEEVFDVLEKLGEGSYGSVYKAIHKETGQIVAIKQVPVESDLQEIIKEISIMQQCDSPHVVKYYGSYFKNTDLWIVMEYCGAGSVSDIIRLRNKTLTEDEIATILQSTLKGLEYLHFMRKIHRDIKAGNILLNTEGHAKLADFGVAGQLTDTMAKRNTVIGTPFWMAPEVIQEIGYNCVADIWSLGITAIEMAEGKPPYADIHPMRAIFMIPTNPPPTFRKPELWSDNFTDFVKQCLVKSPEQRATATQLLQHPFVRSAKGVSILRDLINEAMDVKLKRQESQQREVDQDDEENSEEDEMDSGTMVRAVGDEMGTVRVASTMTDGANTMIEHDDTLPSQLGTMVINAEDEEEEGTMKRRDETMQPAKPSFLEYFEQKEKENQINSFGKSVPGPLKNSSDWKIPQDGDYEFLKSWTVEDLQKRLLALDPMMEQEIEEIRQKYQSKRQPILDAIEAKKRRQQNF

Variants of: B1
Conditions: with stk4_human STK4, Q13043

Row | effect of a mutation on the interaction | Variant
1 | increasing interaction | MSSGNAKIGYPAPNFKATAVMPDGQFKDISLSEYKGKYVVFFFYPLDFTFVCPTEIIAFSDRADEFKKLNCQVIGASVDSHFCHLAWINTPKKQGGLGPMNIPLISDPKRTIAQDYGVLKADEGISFRGLFIIDDKGILRQITINDLPVGRSVDEIIRLVQAFQFTDKHGEVSPAGWKPGSDTIKPDVNKSKEYFSKQK [C173S]
2 | disrupting interaction | MSSGNAKIGYPAPNFKATAVMPDGQFKDISLSEYKGKYVVFFFYPLDFTFVSPTEIIAFSDRADEFKKLNCQVIGASVDSHFCHLAWINTPKKQGGLGPMNIPLISDPKRTIAQDYGVLKADEGISFRGLFIIDDKGILRQITINDLPVGRSVDEIIRLVQAFQFTDKHGEVCPAGWKPGSDTIKPDVNKSKEYFSKQK [C52S]
3 | decreasing interaction | MSSGNAKIGYPAPNFKATAVMPDGQFKDISLSEYKGKYVVFFFYPLDFTFVCPTEIIAFSDRADEFKKLNCQVIGASVDSHFSHLAWINTPKKQGGLGPMNIPLISDPKRTIAQDYGVLKADEGISFRGLFIIDDKGILRQITINDLPVGRSVDEIIRLVQAFQFTDKHGEVCPAGWKPGSDTIKPDVNKSKEYFSKQK [C83S]
